Data from the supplement of paper PMC10567573.

B1: TRIM29 (parent)
chain: FAEKGELRKSIFSESRKPTVSIME

Variants of: B1
Assay: protein stability index of a GFP-peptide fusion (GPS, HEK-293T) (PSI 1-6); higher = more stable
Details: c terminus: a fixed tail appended
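Further: lentivirally expressed fusions sorted by FACS into six bins by GFP to DsRed ratio, PSI derived from sequencing read proportions per bin multiplied by bin number.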

Protein stability index of substitutions, site by site:
S10: Q 1.52, A 1.91, D 2.12, P 2.27, F 2.32, L 1.47, H 1.84, G 2
I22: V 1.86, C 2.68, Y 1.38, M 1.49, N 1.74, S 1.78, K 2.31
T19: M 2.36, G 1.61, W 2.94, V 2.56
S15: D 2.26, T 2.31, K 2, M 2.04, A 1.75, R 1.3, G 1.8
E14: T 2.63, Y 1.7, G 1.78, H 2.05, I 2.32, Q 1.54, C 2.21
R8: K 2.23, S 1.47, D 2.55, Q 1.93, E 2, N 2.44, I 2.81, C 2.08
R16: G 1.99, N 1.5, T 1.6, P 1.96, W 2.29
S13: R 2.19, Q 1.75, G 1.7, E 2.71, H 1.64, I 1.45
M23: C 2.16, D 1.92, V 2.01, Y 2.2, H 2.56, G 1.57, K 1.66, T 2.22, A 1.47, E 1.56, I 1.49
S21: M 2.61, P 1.47, E 1.76, T 1.76, A 2.12, D 1.65, V 2.17, K 2.7, L 2.05
E6: W 2.02, F 2.65, T 1.56, C 2.57, I 1.82, M 1.78, K 1.85, G 1.47, S 1.8, N 1.36, V 1.93
I11: V 1.86, H 2.97, K 3.22, G 3.92, D 3.69, E 3.26, N 3.35, A 2.05, F 2.74, Y 1.7, L 1.9
K17: V 2.46, Q 1.68, F 2.05, D 1.65, E 1.67, G 1.99, P 1.54
V20: Q 2.2, C 2.13, L 1.23, G 1.7, H 2.64, T 1.77
K9: S 1.88, F 1.39, V 2.74, G 2.3, L 3.5, T 1.93
G5: V 1.66, Q 2.02, S 2.11, C 1.15, R 1.7, N 1.93, I 2.31
K4: N 2.53, E 2.33, W 3.24, A 1.87
A2: F 2.52, Y 2.88, R 3.42, P 2.59, K 3.44, L 2.38
E3: P 2.79, R 2.27, I 2.43, K 2.29, Q 2.05
E24: S 1.65, H 3.14, T 1.88, C 2.07, A 2.12, R 1.3, W 2.17, D 2.41, G 2.2, P 2.23, Q 1.95
F1: L 3.14, Y 1.45, S 3.58, K 4.27, I 3.63, A 4.35, E 4.13
P18: M 2.1, L 1.98, F 2.31
L7: S 2.22, F 2.21, K 1.7, C 2.8, P 2.52
F12: P 3.96, S 3.69, H 4.04, V 3.1, A 2.74, E 3.84
